The target in the experiment is T1, GST-tagged PKM2 (UniProt P14618 1-531).
T1 construct: Pyruvate kinase isoform M2 (PKM2); also called GST-PKM2; source: purified
In words: pull-down; GST-pull down in vitro using purified GST-tagged PKM2 and TIPE-HA. The following applies: both partners purified.

T1 sequence (P14618 whole entry, canonical isoform): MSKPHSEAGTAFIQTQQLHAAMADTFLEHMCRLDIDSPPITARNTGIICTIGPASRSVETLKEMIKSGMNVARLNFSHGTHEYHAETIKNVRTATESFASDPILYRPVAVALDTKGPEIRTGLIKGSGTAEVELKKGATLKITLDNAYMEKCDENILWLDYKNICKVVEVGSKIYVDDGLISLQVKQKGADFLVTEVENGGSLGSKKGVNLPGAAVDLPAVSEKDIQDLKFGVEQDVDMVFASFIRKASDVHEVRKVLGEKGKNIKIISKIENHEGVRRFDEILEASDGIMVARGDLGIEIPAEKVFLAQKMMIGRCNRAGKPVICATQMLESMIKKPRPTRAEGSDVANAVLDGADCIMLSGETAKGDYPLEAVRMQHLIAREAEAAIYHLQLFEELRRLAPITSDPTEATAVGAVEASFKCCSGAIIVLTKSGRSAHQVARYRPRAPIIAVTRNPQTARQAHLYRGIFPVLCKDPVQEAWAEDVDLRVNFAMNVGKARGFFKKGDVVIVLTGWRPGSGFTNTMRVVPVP

B1: TIPE-HA used in the GST-pull down assay (natural protein, UniProt O95379 1-198, looked up)
chain: MHSEAEESKEVATDVFNSKNLAVQAQKKILGKMVSKSIATTLIDDTSSEVLDELYRVTREYTQNKKEAEKIIKNLIKTVIKLAILYRNNQFNQDELALMEKFKKKVHQLAMTVVSFHQVDYTFDRNVLSRLLNECREMLHQIIQRHLTAKSHGRVNNVFDHFSDCEFLAALYNPFGNFKPHLQKLCDGINKMLDEENI
notes: TIPE (TNFAIP8); The legend says 'using purified GST-tagged PKM2 and TIPE-HA'; It may be the same construct as m3
Take B1: the binding result is on record as “binds”.

These data come from paper PMC11677236, “TIPE drives a cancer stem-like phenotype by promoting glycolysis via PKM2/HIF-1α axis in melanoma” (eLife, 2024).
